Columns and labels:
[1] = system: T1 generation transgenic rice; assay: Glyphosate resistance of T1 generation transgenic rice seedlings (FIG. 10); type: in vivo; settings: 100 ppm glyphosate aqueous solution (Roundup), cultivated 10 days; wild-type rice control significantly inhibited and died
Text: The rice seed used in this example is RICE KENG XIANG DA008-169, which is publicly available.
Nucleic acid sequence encoding OsGPV mutants (comprising G172A, P177S and V403A) (SEQ ID NO:6) were inserted into the plant expression vector according to the conventional methods to obtain the pk510 vector expressing the OsGPV gene. (see FIG. 9)
1) The transgenic vector pk510 was introduced into Agrobacterium EHA105 to obtain recombinant Agrobacterium.
2) One to five days before the transformation experiment, recombinant Agrobacterium was inoculated on YEB solid medium containing 50 mg/L kanamycin and 15 mg/L rifampicin. The medium was sealed in the dish with 3M tape; kept at temperature at 28° C. in an inverted dish orientation and cultured it in dark for one to five days.
3) The bacteria was scraped at the “Z”-shaped tail with the inoculation ring, and gently suspended in […] NB liquid medium containing 2 mg/L 2,4-dichlorophenoxyacetic acid to make the concentration of the bacteria liquid reach approximately O.D. 600=0.1, and then reserve the make Agrobacterium infection solution.
4) After removing the rice seed coat, the rice seed was placed in a triangular flask, washed 3 times with sterile water. 75% alcohol was added to immerse the seeds, shaken gently for 1 min, and the alcohol discarded. […]

E. coli lacking EPSPS = assay: Glyphosate resistance comparison among rice EPSPS mutants: growth of transformed E. coli on M9 medium with different glyphosate concentrations; type: cell-based, Escherichia coli
Procedure: a) PCR system: According to the primer and template mixed PCR system corresponding to the target vector in the above table, the forward primer was 1.25 μl, the reverse primer was 1.25 μl, the template plasmid was 2 μl, the Q5 PCR master mix was 12.5 μl, and ddH2O was […].
b) PCR reaction conditions were as following: the annealing temperature was set according to the annealing temperature corresponding to the target carrier in the above table.
c) Took out 5 μl of the obtained PCR product and added it to the loading buffer for agarose gel electrophoresis. A band with a size of about 4.5 kb was considered successful.
d) Used NEB's KLD enzyme mixture to remove the template and connected the PCR product. The connection system was 5 μl KLD buffer, 1 μl KLD MIX, 1 μl PCR product, and ddH2O 3 μl. After ligating at room temperature for 5 min, transformed it into E. coli.
e) The ligation product was transformed into Dh5a competent E. coli lacking EPSPS. After resuscitation, the cells were washed twice with M9 medium, and then the washed cells were spread on M9 medium and cultured for 48 h. Sequenced the grown single colony (Tsingke Biological Technology Co., Ltd.), and selected the correct mutant to save for future use.
OsWt represents the wild type rice EPSPS(SEQ ID NO:2). […] OsGA represents the mutated rice EPSPS with mutation G172A. (SEQ ID NO:7) OsPS represents the mutated rice EPSPS with mutation P177S. (SEQ ID NO:8) OsGAPS represents the mutated rice EPSPS with mutation G172A and P177S. (SEQ ID NO:9) OsGAVA represents the mutated rice EPSPS with mutation G172A and V403A(SEQ ID NO:4). OsPSVA represents the mutated rice EPSPS with mutation P177S and V403A(SEQ ID NO:5). OsGPV represents the mutated rice EPSPS with mutation G172A, P177S and V403A(SEQ ID NO:6). OsTIPS represents the mutated rice EPSPS with mutation T173I and P177S. (SEQ ID NO: 35). OsTIPT represents the mutated rice EPSPS with mutation T173I and P177T. (SEQ ID NO:36). OsTIPSVA represents the mutated rice EPSPS with mutation T173I, P177S and V403A. (SEQ ID NO:37). OsTIPTVA represents the mutated rice EPSPS with mutation T173I, P177T and V403A. (SEQ ID NO:38). CP4 represents the wild type EPSPS from Agrobacterium tumefaciens. (SEQ ID NO:39)
Each product obtained from the above steps were transformed into E. coli lacking EPSPS. By detecting the growth of the transformed Escherichia coli on M9 medium containing different glyphosate concentrations (0 mM, 0.5 mM, 2 mM, 4 mM, 5 mM, 25 mM, 75 mM, 100 mM), the 1 mM glyphosate here was equivalent to […] glyphosate acid, the glyphosate resistance of rice EPSPS mutants was verified.

B1: OsGPV: mutated rice EPSPS with mutation G172A, P177S and V403A (SEQ ID NO:6) (protein)
chain: MAAKAEEIVLQPIREISGAVQLPGSKSLSNRILLLSALSEGTTVVDNLLNSEDVHYMLEALKALGLSVEADKVAKRAVVVGCGGKFPVEKDAKEEVQLFLGNAATAMRSLTAAVTAAGGNATYVLDGVPRMRERPIGDLVVGLKQLGADVDCFLGTECPPVRVKGIGGLPGGKVKLSGSISSQYLSALLMAAPLALGDVEIEIIDKLISIPYVEMTLRLMERFGVKAEHSDSWDRFYIKGGQKYKSPGNAYVEGDASSASYFLAGAAITGGTVTVQGCGTTSLQGDVKFAEVLEMMGAKVTWTDTSVTVTGPPREPYGKKHLKAVDVNMNKMPDAAMTLAVVALFADGPTAIRDVASWRVKETERMVAIRTELTKLGASVEEGPDYCIITPPEKLNITAIDTYDDHRMAMAFSLAACADVPVTIRDPGCTRKTFPNYFDVLSTFVRN
modifications: This sequence is synthesized in lab.
[1]
  growth of transgenic rice seedlings in glyphosate solution: not significantly affected
E. coli lacking EPSPS; 100 mM glyphosate medium, FIG. 2
  glyphosate resistance compared with CP4 EPSPS: comparable
E. coli lacking EPSPS; M9 medium, tested 0, 0.5, 2, 4, 5, 25, 75, 100 mM glyphosate, FIG. 2, FIG. 3
  glyphosate concentration of the medium on which the strain can grow: 100 mM

Source: patent US20250277196A1, “EPSPS MUTANTS AND METHOD OF ITS USES” (CROPEDIT BIOTECHNOLOGY INC., priority 2021, published 2025)
